Test [1] concerns the target mutant A3G D128K, cmyc-tagged, expressed from pD3GFPD128K / D3GFPD128K (human) (UniProt Q9HC16). The test can be described thus: cell-based or functional assay.
The target of test [2] is wild type Apolipoprotein B mRNA-editing enzyme-catalytic polypeptide-like 3G (A3G), cmyc-tagged, expressed from pD3GFP / D3GFP (human) (UniProt Q9HC16). In words: cell-based or functional assay.

“HIV-1 viral infectivity factor (Vif), expressed from the helper plasmid pcHelp”: in test [1], the infectivity of HIV-GFP virus produced from vector-carrying 293T cells in the presence of HIV-1 Vif, percent of control is 1 % of control and the inhibition of HIV-GFP replication by the A3G-expressing plasmid in the presence of HIV-1 Vif (GFP flow cytometry of infected 293T cells) was determined as 90%. Moreover, in test [2], the infectivity of HIV-GFP virus produced from vector-carrying 293T cells in the presence of HIV-1 Vif, percent of control is 89 % of control.

The values above are taken from patent publication US20120034693A1.
